This is an account of results in patent publication US20020106675.

This series addresses F7 protein.

B1: Pfu DNA polymerase (α-type DNA polymerase) (protein)
chain: MILDVDYITEEGKPVIRLFKKENGKFKIEHDRTFRPYIYALLRDDSKIEEVKKITGERHGKIVRIVDVEKVEKKFLGKPITVWKLYLEHPQDVPTIREKVREHPAVVDIFEYDIPFAKRYLIDKGLIPMEGEEELKILAFDIETLYHEGEEFGKGPIIMISYADENEAKVITWKNIDLPYVEVVSSEREMIKRFLRIIREKDPDIIVTYNGDSFDFPYLAKRAEKLGIKLTIGRDGSEPKMQRIGDMTAVEVKGRIHFDLYHVITRTINLPTYTLEAVYEAIFGKPKEKVYADEIAKAWESGENLERVAKYSMEDAKATYELGKEFLPMEIQLSRLVGQPLWDVSRSSTGNLVEWFLLRKAYERNEVAPNKPSEEEYQRRLRESYTGGFVKEPEKGLWENIVYLDFRALYPSIIITHNVSPDTLNLEGCKNYDIAPQVGHKFCKDIPGFIPSLLGHLLEERQKIKTKMKETQDPIEKILLDYRQKAIKLLANSFYGYYGYAKARWYCKECAESVTAWGRKYIELVWKELEEKFGFKVLYIDTDGLYATIPGGESEEIKKKALEFVKYINSKLPGLLELEYEGFYKRGFFVTKKRYAVIDEEGKVITRGLEIVRRDWSEIAKETQARVLETILKHGDVEEAVRIVKEVIQKLANYEIPPEKLAIYEQITRPLHEYKAIGPHVAVAKKLAAKGVKIKPGMVIGYIVLRGDGPISNRAILAEEYDPKKHKYDAEYYIENQVLPAVLRILEGFGYRKEDLRYQKTRQVGLTSWLNIKKS
For the protein B1, the “ratio of the primer extension activity to the incorporation activity, about 320 kilodalton gel filtration fraction (Pfu DNA polymerase-F7 complex); about 76 kilodalton fraction (Pfu DNA polymerase alo)” value is given as “the ratio of 0.65 was obtained for the about 320 kilodalton fraction”.
